Here are results for 97 sequences from the Immune Epitope Database (IEDB).

The target of the experiment is HLA-A*02:01. The experiment is described as follows: IEDB peptide-MHC binding, cellular MHC/competitive/fluorescence; ≥ and ≤ were set here for values at or beyond the usual limits of such assays. Conditions: source organism: Vaccinia virus WR.

In turn, MASLLYLIL yielded an IC50 of 9.14 µM.

For the sequence MIKERRQITM, the IC50 stood at 24.9 µM.

As for MIKVGNCDET, the IC50 is at least 70 µM.

MIVLITMLSI returned an IC50 of 6.16 µM.

Sequence MIVLPNKVRI registered an IC50 of at least 70 µM.

As to MQHPREENSI, the IC50 amounted to 27.4 µM.

MQRISGSNI registered an IC50 of 9.8 µM.

In turn, MQRISGSNIV showed an IC50 of 13 µM.

MTENVEEDL gave an IC50 of 22.1 µM.

In turn, MTENVEEDLA returned an IC50 of 24.5 µM.

The sequence MTPENDEEQT showed an IC50 of at least 70 µM.

The sequence MVISLLSMIT gave an IC50 of 9.75 µM.

MVSIDEVAST yielded an IC50 of 36.8 µM.

Take NAECQPLQL: the IC50 stood at 14.3 µM.

For the sequence NAKCIEYVT, the IC50 was at least 70 µM.

NAKCIEYVTL displayed an IC50 of 38 µM.

Turning to NAKLTSTET, the IC50 came out at 8.67 µM.

As to NIGIVLSNT, the IC50 was 14.6 µM.

On to NIGKIIMSL, for which the IC50 was determined as 7.04 µM.

NIHNHMIKV: the IC50 was 6.46 µM.

In turn, NIIMKTPGNT showed an IC50 of 8.14 µM.

NIKNDVVIL displayed an IC50 of at least 70 µM.

The sequence NISTIQESFI registered an IC50 of at least 70 µM.

As for NIVWEKKSL, the IC50 worked out at 10.9 µM.

The sequence NMNYSDDYM returned an IC50 of 11.2 µM.

In the case of NQCMSANEA, the IC50 came out at 13.3 µM.

Sequence NQCMSANEAA came in with an IC50 of 67.6 µM.

Consider NQHNIIVEHL, for which the concentration for half-maximal inhibition (IC50) is at least 70 µM.

Regarding NTCLRCSKL, the IC50 came out at 24.6 µM.

The sequence NTDSEMDQRL registered an IC50 of at least 70 µM.

For the sequence NTFPNITLKI, the IC50 worked out at 10.1 µM.

On to NTIDQTANVV, for which the IC50 turned out to be 6.56 µM.

Sequence NTRDTQQHPI registered an IC50 of at least 70 µM.

Sequence NTSLEIEFT yielded a half-inhibitory concentration (IC50) of at least 70 µM.

Turning to NVEEDLARNL, the IC50 is at least 70 µM.

Consider NVILSPPINA, for which the IC50 was 7.25 µM.

For NVTNPFDFM, the IC50 was found to be 7.94 µM.

On to NVVSSSTIAT, for which the IC50 was at least 70 µM.

Take PAAMYQYIFL: the IC50 was 5.57 µM.

The sequence PAVVYSTCT registered an IC50 of 5.5 µM.

On to PIIFGESSI, for which the IC50 came to 34.7 µM.

Consider PIKFIAEFL, for which the IC50 came to 8.24 µM.

Sequence PINAPIKTFM had an IC50 of 7.62 µM.

PITIENALV came in with an IC50 of at least 70 µM.

Turning to PIVISKALET, the concentration for half-maximal inhibition (IC50) came to 26.8 µM.

Take PIYYVQKQLV: the IC50 was 18.7 µM.

Consider PLITLTNVV, for which the IC50 was 6.67 µM.

The sequence PLSKVHGLDV showed an IC50 of 37.9 µM.

PMNVDNLIM yielded a half-maximal inhibitory concentration (IC50) of 17.4 µM.

PTASSDSLQT showed an IC50 of 16.7 µM.

Take PTELKETLL: the IC50 was at least 70 µM.

As to PTINKSIYII, the IC50 stood at 6.11 µM.

PTLDNILGI: the IC50 is 6.67 µM.

For PTLDNILGIL, the IC50 was found to be 63.7 µM.

On to PTMKIFYKHI, for which the IC50 is at least 70 µM.

Regarding PTMNNAKLT, the IC50 was 19.8 µM.

PTNKLQAAV registered an IC50 of 6.43 µM.

PTNKLQAAVM yielded an IC50 of 29.5 µM.

In the case of PTRTLDTAI, the IC50 is at least 70 µM.

As to PVDDGPDDET, the IC50 was determined as 15.2 µM.

PVHDILSGL had an IC50 of at least 70 µM.

In turn, PVKRIIDSEV showed an IC50 of 33.8 µM.

In turn, PVLPICVRT displayed an IC50 of 7.3 µM.

With PVNNNIVLHT, the IC50 amounted to 35.8 µM.

For PVSKVKSCL, the IC50 was found to be 14.3 µM.

PVSTNGKIV: the IC50 is at least 70 µM.

With PVSTNGKIVM, the IC50 is at least 70 µM.

For the sequence PVTEDDYKFL, the IC50 was found to be 26.7 µM.

For PVVFYRSGT, the IC50 stood at 15.4 µM.

QARNIQKIT returned an IC50 of 6.7 µM.

In the case of QIHLYYNSNI, the IC50 amounted to 48.7 µM.

On to QISQCQRINM, for which the IC50 is 19 µM.

For QLKGFYMISL, the IC50 stood at 9.02 µM.

As for QLPMEDNSDI, the IC50 stood at 38.5 µM.

The sequence QMNARGVKV yielded an IC50 of 5.14 µM.

QQALSSFHTT came in with an IC50 of 29.1 µM.

With QQHPIVVLDA, the IC50 came to 14.5 µM.

Regarding QQKCDMPSL, the IC50 came to 25 µM.

As to QQKKCKYCI, the IC50 stood at 38.8 µM.

In turn, QQPIKKDCMV came in with an IC50 of 18.5 µM.

Consider QTPIQSDAGM, for which the IC50 turned out to be 34.3 µM.

In turn, RIKIDKLRQI registered an IC50 of at least 70 µM.

In turn, RINDDSKSI gave a half-inhibitory concentration (IC50) of 13.4 µM.

As for RIVVYNPST, the IC50 turned out to be 6.05 µM.

The sequence RIVVYNPSTM returned a half-inhibitory concentration (IC50) of at least 70 µM.

RLSLNRTIVT had an IC50 of 8.65 µM.

RQLAKAIIT yielded an IC50 of 9.8 µM.

RQSSCKMAL registered an IC50 of 42.7 µM.

Turning to RTDTTICLSI, the IC50 was found to be 11 µM.

As to RTKIPLSKV, the IC50 is at least 70 µM.

As for RTNRNELFQL, the IC50 turned out to be 31.2 µM.

In turn, RTRGPLGIL came in with an IC50 of 51.3 µM.

Take RVETSPRPTA: the IC50 worked out at 36.5 µM.

Regarding SADDIQAIM, the IC50 amounted to 12.1 µM.

Consider SAKRITESIT, for which the IC50 is at least 70 µM.

In turn, SANEAAITDA had an IC50 of 10.2 µM.

SATESDAIRT had an IC50 of at least 70 µM.

Broadly, the IC50 is the concentration that inhibits the measured activity by half. The low end stands for inhibition by little substance, the high end for a need for much substance.
